We go through one molecule from patent US20240316099A1.

This experiment deals with NKG2D ligands. The experiment is described as follows: cell-based or functional assay.

B1: chimeric NKG2D receptor (NKG2D.ζ), expressed on primary human NK cells (receptor)
chain: MRVKFSRSAEPPAYQQGQNQLYNELNLGRREEYDVLDKRRGRDPEMGGKPRRKNPQEGLYNELQKDKMAEAYSEIGMKGERRRGKGHDGLYQGLSTATKDTYDALHMQALPPRGWIRGRRSRHSWEMSEFHNYNLDLKKSDFSTRWQKQRCPVVKSKCRENASPFFFCCFIAVAMGIRFIIMVAIWSAVFLNSLFNQEVQIPLTESYCGPCPKNWICYKNNCYQFFDESKNWYESQASCMSQNASLLKVYSKEDQDLLKLVKSYHWMGLVHIPTNGSWQWEDGSILSPNLLTIIEMQKGDCALYASSFKGYIENCSTPNTYICMQRTV
With B1, the cytotoxicity against autologous MDSCs, 4-hour chromium-release assay, E:T ratio of 5:1 is 35%; the cytotoxicity against wild-type K562 in a 4-hour cytotoxicity assay, 2:1 E:T ratio is 79.2%; the lysis of autologous immature dendritic cells, E:T ratio of 20:1 stood at 4.2%.
